Experimental data: article PMC6479064

Experiments:
[1] = target: C. reinhardtii axonemal tubulin purified from the combined cyc1-cyc5 fractions (CP/B tubulin) (C. reinhardtii); assay: dynamic microtubule assay by interference reflection microscopy (IRM); label-free; tubulin at different concentrations in BRB80 with oxygen scavengers, 0.1 mg/ml casein, 1 mM dithiothreitol and 1 mM GTP, 28 °C; extensions grown from TAMRA-labeled GMPCPP-stabilized bovine brain MT seeds held on the coverslip by anti-TAMRA antibodies; constants from linear regression of growth rate against tubulin concentration; tubulin dimer onto the microtubule end
[2] = target: C. reinhardtii axonemal tubulin purified from the combined cyc1-cyc5 fractions (CP/B tubulin) (C. reinhardtii); assay: dynamic microtubule assay by IRM with mean-squared displacement (MSD) analysis; MT ends tracked with FIESTA; quadratic fit to the first 15 s of MSD against time; estimated rate constants of tubulin dimer binding and unbinding at the growing end

koff, minus end [1]: 1.16 s⁻¹
koff, plus end [1]: 0.785 s⁻¹
kon, minus end [1]: 430000 M⁻¹ s⁻¹
kon, plus end [1]: 540000 M⁻¹ s⁻¹
x-intercept (extrapolated tubulin concentration for growth), minus end [1]: 2.58 µM
x-intercept (extrapolated tubulin concentration for growth), plus end [1]: 1.35 µM
koff, minus end (MSD analysis) [2]: 228 s⁻¹
koff, plus end (MSD analysis) [2]: 341 s⁻¹
kon, minus end (MSD analysis) [2]: 2.6e+07 M⁻¹ s⁻¹
kon, plus end (MSD analysis) [2]: 3.86e+07 M⁻¹ s⁻¹
kon[Tub], minus end (MSD analysis) [2]: 234 s⁻¹
kon[Tub], plus end (MSD analysis) [2]: 348 s⁻¹
Substance: C. reinhardtii axonemal tubulin purified from the combined cyc1-cyc5 fractions (CP/B tubulin) (complex)
